According to patent publication US20240384250A1, “FIBROBLAST GROWTH FACTOR 23 MODULATING COMPOUNDS” (THE UAB RESEARCH FOUNDATION, priority 2021, published 2024):
Entries after “also recorded” stand apart in the source; their conditions may differ.

T1: FGF23 binding to FGFR1c (Homo sapiens, UniProt P11362+Q9GZV9)
T1 construct: Fc-coupled FGFR ectodomains were immobilized on protein A/G beads; purchased R&D Systems 2604FG025/CF or 2629FG025/CF; 658FR050
T1 sequence (Q9GZV9 25-251): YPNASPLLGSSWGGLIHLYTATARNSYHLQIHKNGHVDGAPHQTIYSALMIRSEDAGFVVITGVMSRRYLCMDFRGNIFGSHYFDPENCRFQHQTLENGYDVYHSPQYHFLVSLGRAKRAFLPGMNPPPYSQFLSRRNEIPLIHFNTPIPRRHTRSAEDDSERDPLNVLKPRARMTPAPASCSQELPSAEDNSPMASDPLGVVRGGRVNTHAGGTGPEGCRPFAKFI
T1 sequence (P11362 22-376 limits assumed): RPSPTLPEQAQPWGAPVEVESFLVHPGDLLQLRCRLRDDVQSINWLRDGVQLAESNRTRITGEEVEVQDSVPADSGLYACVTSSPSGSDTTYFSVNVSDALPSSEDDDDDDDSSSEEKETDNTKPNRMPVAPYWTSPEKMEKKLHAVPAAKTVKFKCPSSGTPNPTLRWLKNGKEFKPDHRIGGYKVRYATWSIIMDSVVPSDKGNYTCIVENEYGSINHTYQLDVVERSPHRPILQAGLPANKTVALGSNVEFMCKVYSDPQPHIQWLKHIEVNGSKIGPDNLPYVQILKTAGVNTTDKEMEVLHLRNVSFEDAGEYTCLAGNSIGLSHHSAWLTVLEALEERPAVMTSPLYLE

T2: FGF23 binding to FGFR3c (Homo sapiens, UniProt P22607+Q9GZV9)
T2 construct: Fc-coupled FGFR ectodomains were immobilized on protein A/G beads; purchased R&D Systems 2604FG025/CF or 2629FG025/CF; 766FR050
T2 sequence (Q9GZV9 25-251): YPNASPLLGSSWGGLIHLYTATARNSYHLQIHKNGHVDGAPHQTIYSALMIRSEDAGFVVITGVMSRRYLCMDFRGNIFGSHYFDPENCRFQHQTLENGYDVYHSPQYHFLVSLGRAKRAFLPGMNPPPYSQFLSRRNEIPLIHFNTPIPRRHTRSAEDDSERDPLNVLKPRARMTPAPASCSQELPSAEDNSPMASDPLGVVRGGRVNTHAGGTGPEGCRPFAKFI
T2 sequence (P22607 23-375 limits assumed): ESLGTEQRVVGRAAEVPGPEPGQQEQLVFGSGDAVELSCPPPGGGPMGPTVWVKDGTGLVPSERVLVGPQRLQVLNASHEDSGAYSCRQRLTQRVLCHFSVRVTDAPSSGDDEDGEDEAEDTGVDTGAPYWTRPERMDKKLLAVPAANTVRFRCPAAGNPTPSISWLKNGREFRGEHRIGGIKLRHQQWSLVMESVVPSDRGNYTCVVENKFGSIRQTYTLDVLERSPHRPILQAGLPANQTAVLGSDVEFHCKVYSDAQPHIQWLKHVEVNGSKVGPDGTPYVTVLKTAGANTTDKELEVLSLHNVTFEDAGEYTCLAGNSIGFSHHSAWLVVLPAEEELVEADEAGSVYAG

B1: sKL: recombinant soluble α-klotho ectodomain, mouse aa 35-982 and human aa 34-981, FLAG- or Strep/His-tagged, purified from HEK293 cells (protein)
chain: EPGDGAQTWARFSRPPAPEAAGLFQGTFPDGFLWAVGSAAYQTEGGWQQHGKGASIWDTFTHHPLAPPGDSRNASLPLGAPSPLQPATGDVASDSYNNVFRDTEALRELGVTHYRFSISWARVLPNGSAGVPNREGLRYYRRLLERLRELGVQPVVTLYHWDLPQRLQDAYGGWANRALADHFRDYAELCFRHFGGQVKYWITIDNPYVVAWHGYATGRLAPGIRGSPRLGYLVAHNLLLAHAKVWHLYNTSFRPTQGGQVSIALSSHWINPRRMTDHSIKECQKSLDFVLGWFAKPVFIDGDYPESMKNNLSSILPDFTESEKKFIKGTADFFALCFGPTLSFQLLDPHMKFRQLESPNLRQLLSWIDLEFNHPQIFIVENGWFVSGTTKRDDAKYMYYLKKFIMETLKAIKLDGVDVIGYTAWSLMDGFEWHRGYSIRRGLFYVDFLSQDKMLLPKSSALFYQKLIEKNGFPPLPENQPLEGTFPCDFAWGVVDNYIQVDTTLSQFTDLNVYLWDVHHSKRLIKVDGVVTKKRKSYCVDFAAIQPQIALLQEMHVTHFRFSLDWALILPLGNQSQVNHTILQYYRCMASELVRVNITPVVALWQPMAPNQGLPRLLARQGAWENPYTALAFAEYARLCFQELGHHVKLWITMNEPYTRNMTYSAGHNLLKAHALAWHVYNEKFRHAQNGKISIALQADWIEPACPFSQKDKEVAERVLEFDIGWLAEPIFGSGDYPWVMRDWLNQRNNFLLPYFTEDEKKLIQGTFDFLALSHYTTILVDSEKEDPIKYNDYLEVQEMTDITWLNSPSQVAVVPWGLRKVLNWLKFKYGDLPMYIISNGIDDGLHAEDDQLRVYYMQNYINEALKAHILDGINLCGYFAYSFNDRTAPRFGLYRYAADQFEPKASMKHYRKIIDSNGFPGPETLERFCPEEFTVCTECSFFHTRKS
modifications: left off: small tags and cut ends
notes: recombinant soluble α-klotho ectodomain, mouse aa 35-982 and human aa 34-981, FLAG- or Strep/His-tagged, purified from HEK293 cells
B2: FGF23: recombinant fibroblast growth factor 23 protein from R&D Systems (protein)
chain: YPDTSPLLGSNWGSLTHLYTATARTSYHLQIHRDGHVDGTPHQTIYSALMITSEDAGSVVITGAMTRRFLCMDLHGNIFGSLHFSPENCKFRQWTLENGYDVYLSQKHHYLVSLGRAKRIFQPGTNPPPFSQFLARRNEVPLLHFYTVRPRRHTRSAEDPPERDPLNVLKPRPRATPVPVSCSRELPSAEEGGPAASDPLGVLRRGRGDARGGAGGADRCRPFPRFV

How the values were obtained:
[1] = system: phosphorylated ERK in HEK293T cells; experiment: ERK phosphorylation in serum-starved HEK293 cells (Western blotting); assay type: cell-based, human
Experimental: (§1) The sample (20 μl) was loaded onto Mini-PROTEAN TGX Precast Gel 4-20% for experiments with <9 samples (4568094, Bio-Rad) or Criterion TGX Precast Gel 4-20% (5678094, Bio-Rad) for experiments with >9 samples. Gels were run in 1× Tris/Glycine/SDS buffer (1610732, Bio-Rad) at 150 V and stopped when the sample dye reached the end of the gel. Gels were removed and electrotransferred via a semi-dry cassette (1703940, Bio-Rad) in I× Tris/Glycine buffer (1610734, Bio-Rad) with 20% methanol. Gels were transferred onto polyvinylidene diflouride membranes (IPVH00010, Millipore) at 20 V for 1 hour. Membranes were then blocked in 5% dried milk with 0.5% Tween 20 diluted in Tris-buffered saline (TBST; pH 7.5) for 1 hour and probed with antibodies against specific antigens at 1:1000 in TBST with 5% dried milk. Blots were washed 3× for 5 minutes in TBST and probed with HRP-coupled secondary antibodies against specific species at 1:10,000 in TBST with 5% dried milk. Membranes were imaged on the SRX-101A X-ray film developer (Konica Minolta).
To determine the cellular activity of paracrine FGFs, the activation/phosphorylation of ERK in HEK293 cells after treatment was studied. HEK293 cells were seeded in 6-well plates in DMEM (26140079, Gibco) supplemented with I× Pen/Strep (15140122, Gibco) and 10% FBS (26140079, Gibco) and grown for 48 hours. Upon reaching 80% confluence, cells were serum starved overnight in DMEM and 1× Pen/Strep without FBS. The medium was changed, and cells were treated with sKL at 2 μg/ml or vehicle (sKL elution buffer: 25 mM Tris ph 8.0, 500 mM NaCl) for 15 minutes. Cells were then treated with various FGFs at 1.1 nM for 10 minutes. Cells were lysed in 200 μl of RIPA with the addition of a protease inhibitor (11836153001, Roche) and phosphatase inhibitors (P5726 and P0044, Sigma-Aldrich) for 30 minutes. The mixture was then centrifuged at 20,000 g for 60 minutes to remove all cell debris. One hundred microliters of 1× Laemmli sample buffer (1610737, Bio-Rad) with 1.42 M 2-mercaptoethanol was added, and samples were boiled for 5 minutes. Twenty microliters of samples was loaded onto 12% SDS-PAGE gels and analyzed using Western blotting for total and phosphorylated ERK.

[2] = molecular target: T1, FGF23 binding to FGFR1c; experiment: Pull-down of FGF23 with Fc-FGFR on protein A/G beads with sKL, heparin or PBS; settings: with heparin, or alone
Experimental: (§2) To study the interaction between Fc-tagged FGFR isoforms (Fc-FGFR), FGF isoforms, and sKL, immunoprecipitation studies were conducted. Protein A beads (6501, BioVision) and protein G beads (6511, BioVision) were used at 25 μl of a 50% stock slurry per sample in a total bead volume of 50 μl. Beads were washed 5× in activity buffer (50 mM Tris [pH 7.4], 200 mM NaCl, 0.01% Tween 20). Bead spin-down assays were all performed for 2 minutes at 5000 g. Beads were resuspended in 1 ml of activity buffer in a 1.5-ml snap cap tube. One microgram of Fc-FGFR1 to 4 was incubated with the beads for 1 hour on a bead rotator. Control samples were incubated with 2 μg of anti-FGF antibody instead of Fc-FGFR. Beads were then pelleted at 5000 g for 2 minutes and washed 5× with activity buffer. Beads were resuspended and incubated with different combinations of 500 ng of FGF, 1 μg of sKL, 1.6 United States Pharmacopeia (USP) units of heparin, or phosphate-buffered saline (PBS). Beads were incubated for 1 hour on a tube rotator, and beads were pelleted and washed as before. One hundred microliters of 1× Laemmli sample buffer (1610737, Bio-Rad) with 1.42 M 2-mercaptoethanol was added, and samples were boiled for 5 minutes. Samples were analyzed using SDS-PAGE and Western blotting.
as §1

[3] = molecular target: T2, FGF23 binding to FGFR3c; experiment: as above; settings: with heparin, or alone
Experimental: as §2, §1

Molecule	phospho-ERK levels in cells treated with FGF2 ([1]; sKL 2 μg/ml 15 minutes before FGF2)	phospho-ERK levels in cells treated with FGF5 ([1]; sKL 2 μg/ml 15 minutes before FGF5)	ERK phosphorylation in cells incubated with FGF23 ([1]; sKL 2 μg/ml 15 minutes before FGF23)	phospho-ERK levels in cells treated with FGF8b ([1]; sKL 15 minutes before FGF8b)	FGF23 co-precipitation with Fc-FGFR1c [2]	FGF23 co-precipitation with Fc-FGFR3c [3]	ERK phosphorylation induced by FGF ([1]; FGF 1.1 nM for 10 minutes, absence of sKL)
B1	decreased phospho-ERK levels; also recorded: did not occur	decreased phospho-ERK levels; also recorded: did not occur	induced ERK phosphorylation; also recorded: increased pERK levels	did not occur	could coprecipitate sKL and FGF23; also recorded: complex formation with FGFR1c	could coprecipitate sKL and FGF23	
B2					no FGF23 binding was detected	no FGF23 binding was detected	had no effect
